In patent US11957762B2, “Immune tolerant and non-immune tolerant elastin-like recombinant peptides and methods of use” (University of Utah Research Foundation, priority 2015, dated 2024):

B1: G(GAGVPG)70G(GVLPGVG)28G(ESIINFEKLT)2GG (protein)
chain: GGAGVPGGAGVPGGAGVPGGAGVPGGAGVPGGAGVPGGAGVPGGAGVPGGAGVPGGAGVPGGAGVPGGAGVPGGAGVPGGAGVPGGAGVPGGAGVPGGAGVPGGAGVPGGAGVPGGAGVPGGAGVPGGAGVPGGAGVPGGAGVPGGAGVPGGAGVPGGAGVPGGAGVPGGAGVPGGAGVPGGAGVPGGAGVPGGAGVPGGAGVPGGAGVPGGAGVPGGAGVPGGAGVPGGAGVPGGAGVPGGAGVPGGAGVPGGAGVPGGAGVPGGAGVPGGAGVPGGAGVPGGAGVPGGAGVPGGAGVPGGAGVPGGAGVPGGAGVPGGAGVPGGAGVPGGAGVPGGAGVPGGAGVPGGAGVPGGAGVPGGAGVPGGAGVPGGAGVPGGAGVPGGAGVPGGAGVPGGAGVPGGAGVPGGAGVPGGAGVPGGESIINFEKLTESIINFEKLTGG
B2: ST-NP: stable NP of the fusion iTEPB70-iTEPA56-pOVA (SEQ ID NO: 60) (protein)
chain: GGAGVPGGAGVPGGAGVPGGAGVPGGAGVPGGAGVPGGAGVPGGAGVPGGAGVPGGAGVPGGAGVPGGAGVPGGAGVPGGAGVPGGAGVPGGAGVPGGAGVPGGAGVPGGAGVPGGAGVPGGAGVPGGAGVPGGAGVPGGAGVPGGAGVPGGAGVPGGAGVPGGAGVPGGAGVPGGAGVPGGAGVPGGAGVPGGAGVPGGAGVPGGAGVPGGAGVPGGAGVPGGAGVPGGAGVPGGAGVPGGAGVPGGAGVPGGAGVPGGAGVPGGAGVPGGAGVPGGAGVPGGAGVPGGAGVPGGAGVPGGAGVPGGAGVPGGAGVPGGAGVPGGAGVPGGAGVPGGAGVPGGAGVPGGAGVPGGAGVPGGAGVPGGAGVPGGAGVPGGAGVPGGAGVPGGAGVPGGAGVPGGAGVPGGAGVPGGAGVPGGGVLPGVGGVLPGVGGVLPGVGGVLPGVGGVLPGVGGVLPGVGGVLPGVGGVLPGVGGVLPGVGGVLPGVGGVLPGVGGVLPGVGGVLPGVGGVLPGVGGVLPGVGGVLPGVGGVLPGVGGVLPGVGGVLPGVGGVLPGVGGVLPGVGGVLPGVGGVLPGVGGVLPGVGGVLPGVGGVLPGVGGVLPGVGGVLPGVGGGGGGGGGCGGGGGGGGCGGGGGGGGCGGGGGGGGCGESIINFEKLTESIINFEKLTGG
B3: RED-NP: reductive-environment dependable NP, disulfide stabilized fusion iTEPB70-iTEPA28-(G8C)4-pOVA (SEQ ID NO: 61) (protein)
chain: GGAGVPGGAGVPGGAGVPGGAGVPGGAGVPGGAGVPGGAGVPGGAGVPGGAGVPGGAGVPGGAGVPGGAGVPGGAGVPGGAGVPGGAGVPGGAGVPGGAGVPGGAGVPGGAGVPGGAGVPGGAGVPGGAGVPGGAGVPGGAGVPGGAGVPGGAGVPGGAGVPGGAGVPGGAGVPGGAGVPGGAGVPGGAGVPGGAGVPGGAGVPGGAGVPGGAGVPGGAGVPGGAGVPGGAGVPGGAGVPGGAGVPGGAGVPGGAGVPGGAGVPGGAGVPGGAGVPGGAGVPGGAGVPGGAGVPGGAGVPGGAGVPGGAGVPGGAGVPGGAGVPGGAGVPGGAGVPGGAGVPGGAGVPGGAGVPGGAGVPGGAGVPGGAGVPGGAGVPGGAGVPGGAGVPGGAGVPGGAGVPGGAGVPGGAGVPGGAGVPGGGVLPGVGGVLPGVGGVLPGVGGVLPGVGGVLPGVGGVLPGVGGVLPGVGGVLPGVGGVLPGVGGVLPGVGGVLPGVGGVLPGVGGVLPGVGGVLPGVGGVLPGVGGVLPGVGGVLPGVGGVLPGVGGVLPGVGGVLPGVGGVLPGVGGVLPGVGGVLPGVGGVLPGVGGVLPGVGGVLPGVGGVLPGVGGVLPGVGGCGCGCGCGESIINFEKLTESIINFEKLTGG

Tests used:
C57BL/6 mice = assay: In vivo CTL response by ELISPOT IFN-γ assay; parameters: species or system mouse; conditions: for SIINFEKL-specific CTL response in vivo: immunized C57BL/6 mice, ELISPOT
Excerpt: in vivo CTL response by ELISPOT IFN-γ assay. C57BL/6 mice were immunized subcutaneously with each immunogen (2 nmol […] equivalents per mouse) together with incomplete Freunds Adjuvants (IFA; Sigma, USA) at their left flanks. The immunization was repeated at their right flanks 1 week later. At 10 days after the second immunization, mice were sacrificed, and the spleens were harvested. The spleens of the sacrificed mice were teased into single-cell suspensions and filtered through nylon mesh […]. Red blood cells were lysed by Ammonium-Chloride-Potassium (ACK) lysing buffer. The washed and resuspended single cells were counted using Contess™ Automated Cell Counter (Invitrogen, USA). Splenocytes (8×10^6/mL) were incubated in RPMI-1640 medium supplemented with 10% heat inactivated fetal calf serum, 2 mM glutamine, 100 units/mL penicillin and 100 μg/mL streptomycin (Invitrogen, USA), in a 14 mL polypropylene tissue culture tube for 48 hours, with or without […] peptide (SEQ ID NO: 22) (2.5 μg/mL). The cells were then washed and recounted. 2×10^5 live cells in 100 μL medium were then loaded into wells of 96-well Filtration plates (Millipore, USA) coated with […] of capture anti-mouse IFN-γ mAb (Clone: R4-6A2, Biolegend, USA). Triplicates were set up for each condition. Cells were discarded after 24 hours of culture and the wells were incubated with […] of detectionbiotinylated, anti-mouse IFN-γ mAb overnight (Clone: XMG1.2-Biotin, Biolegend, USA). After the unbound antibodies were washed away from the wells, the bound antibodies were detected using horseradish peroxidase (HRP Avidin, Biolegend, USA) together with 3-amino-9-ethyl-carbazole (AEC) substrate (Sigma, USA). The membranes on the bottom of the wells were peeled off, and color spots on the membrane were scanned. The spots were automatically counted using ImageJ software.
Animal immunization. C57BL/6 mice were immunized by the subcutaneous injection of 2 nmol iTEP NP vaccines and incomplete Freunds Adjuvants (IFA; Sigma, USA) at their left flanks. Immunization was repeated at their right flanks after 1 week. On day 10 after the second immunization, mice were sacrificed, and the spleens were harvested.

DC2.4 cells = assay: Cellular uptake of iTEP-vaccine fusions by DCs; assay type: cell-based, murine
Procedure: Fluorescent labeling of iTEP-vaccine fusions. For the flow cytometry study, the fusions were labeled with the amine-reactive coumarin, 7-diethylaminocoumarin-3-carboxylic acid, through succinimidyl ester to form blue-fluorescent bioconjugates. For the microscopy-based cellular uptake study and the cellular degradation study, the fusions were labeled with Alexa Fluo 488 5-SDP ester (Alexa-488) to form green-fluorescent bioconjugates. The reactions were performed based on the manufacturer's instructions (Molecular Probes by Life Technologies). Briefly, 10 mg of iTEPs were reacted with 1 mg of coumarin or 0.2 mg of Alexa-488 in 0.1 M sodium bicarbonate buffer, pH 8.3 at a final volume of 1 mL. The reaction was carried out with continuous stirring in the dark and at room temperature for 1.5 h. The protein-dye conjugates were purified using Amicon Ultra1-5 (10k) centrifugal filters (Millipore). The coumarin conjugate was measured for their absorbances of at 205 nm (A205) and 433 nm (A433, λmax for coumarin); the Alexa-488 conjugate was measured at 205 nm and 495 nm (A495, λmax for Alexa-488). The iTEP-vaccine fusion concentrations and the degree of labeling (DOL) were calculated based on these equations: […]
Cellular uptake of iTEP-vaccine fusions. […] The fluorescence of the cells was measured by flow cytometry (collecting 5×10^4 events per sample). […]

[1] = Response of NPs to reductants (DLS after GSH or DTT); assay type: physicochemical; conditions: 16 hours, by number distribution
Procedure: The next set of experiments tested whether disulfide bonds inside the new NP were reducible and if the NP structure was dissolvable in a reductive environment like cytosol (glutathione, GSH 1-10 mM) (Smith et al., Toxicol Appl Pharmacol, 1996; 140(1):1-12; Wu et al., J Nutr, 2004; 134(3):489-92). The new NP and the ST-NP were treated using two concentrations of GSH, at 37° C. overnight and then analyzed particle structure changes of both NPs by DLS. These concentrations mimic GSH concentrations in either cytoplasm (GSH 1-10 mM) or the extracellular (GSH 1-10 μM) environment (Smith et al., Toxicol Appl Pharmacol, 1996; 140(1):1-12; Cantin et al., Appl Physiol (1985), 1987, 63(1):152-7; Jones et al., Clin Chim Acta, 1998; 275(2):175-84). Both NPs were stable at 10 μM of GSH. The new NP lost its particle structure after being treated with 1 mM of GSH (Table 4). […] In contrast, the ST-NP, as a control, maintained its particle structure regardless of its incubation with any concentration of GSH. Similar results emerged when dithiothreitol (DTT) was used as the reductant except that the new iTEP-NP was not stable in 10 μM of DTT (Table 4). […] The new NP was named the reductive-environment dependable NP or RED-NP.

Molecule	SIINFEKL-restricted activated splenocytes (INF-γ ELISPOT) (C57BL/6 mice; subcutaneous immunization twice, 2 nmol SIINFEKL equivalents per mouse with IFA)	uptake by DCs, times more than the MS-NP (DC2.4 cells; 5 μM coumarin-labeled fusions, 4 h)	SIINFEKL-specific CTL response in vivo (C57BL/6 mice)	Hydrodynamic diameter (nm) ([1]; DTT 10 μM)	Hydrodynamic diameter (nm) ([1]; DTT 1000 μM)	Hydrodynamic diameter (nm) ([1]; GSH 10 μM)	Hydrodynamic diameter (nm) ([1]; GSH 1000 μM)	Hydrodynamic diameter (nm) ([1]; no reductant (0 μM))	internalization to DCs (DC2.4 cells; fluorescence microscopy and flow cytometry)
B1	105 spots per million seeded splenocytes								
B2		two	significantly weaker than the one elicited by the MS-NP	52.56 ± 13.67 (NP) nm	53.10 ± 13.56 (NP) nm	52.23 ± 13.59 (NP) nm	50 ± 13.62 (NP) nm	54.82 ± 12.89 (NP) nm	
B3			outperformed the MS-NP and induced stronger CTL responses	8.75 ± 2.03 nm	6.43 ± 2.01 nm	37.98 ± 6.72 (NP) nm	8.35 ± 1.04 nm	47.11 ± 13.18 (NP) nm	as efficient as the ST-NP and more robust than the MS-NP
